Laboratory results: patent publication US8697369B2, “Method for screening a test substance for activating a receptor associated with FGF 21 activity” (National Institute of Advanced Industrial Science and …, priority 2007, dated 2014)

Target: T1, betaKlotho-expressing BaF3 cells (Mus musculus, UniProt Q99N32)
T1 construct: the entire-length cDNA of mouse betaKlotho was cloned into an animal cell expression vector; expressed in transfected cells; host or cells: BaF3 (mouse pro-B) cells
T1 sequence (Q99N32 1-1043): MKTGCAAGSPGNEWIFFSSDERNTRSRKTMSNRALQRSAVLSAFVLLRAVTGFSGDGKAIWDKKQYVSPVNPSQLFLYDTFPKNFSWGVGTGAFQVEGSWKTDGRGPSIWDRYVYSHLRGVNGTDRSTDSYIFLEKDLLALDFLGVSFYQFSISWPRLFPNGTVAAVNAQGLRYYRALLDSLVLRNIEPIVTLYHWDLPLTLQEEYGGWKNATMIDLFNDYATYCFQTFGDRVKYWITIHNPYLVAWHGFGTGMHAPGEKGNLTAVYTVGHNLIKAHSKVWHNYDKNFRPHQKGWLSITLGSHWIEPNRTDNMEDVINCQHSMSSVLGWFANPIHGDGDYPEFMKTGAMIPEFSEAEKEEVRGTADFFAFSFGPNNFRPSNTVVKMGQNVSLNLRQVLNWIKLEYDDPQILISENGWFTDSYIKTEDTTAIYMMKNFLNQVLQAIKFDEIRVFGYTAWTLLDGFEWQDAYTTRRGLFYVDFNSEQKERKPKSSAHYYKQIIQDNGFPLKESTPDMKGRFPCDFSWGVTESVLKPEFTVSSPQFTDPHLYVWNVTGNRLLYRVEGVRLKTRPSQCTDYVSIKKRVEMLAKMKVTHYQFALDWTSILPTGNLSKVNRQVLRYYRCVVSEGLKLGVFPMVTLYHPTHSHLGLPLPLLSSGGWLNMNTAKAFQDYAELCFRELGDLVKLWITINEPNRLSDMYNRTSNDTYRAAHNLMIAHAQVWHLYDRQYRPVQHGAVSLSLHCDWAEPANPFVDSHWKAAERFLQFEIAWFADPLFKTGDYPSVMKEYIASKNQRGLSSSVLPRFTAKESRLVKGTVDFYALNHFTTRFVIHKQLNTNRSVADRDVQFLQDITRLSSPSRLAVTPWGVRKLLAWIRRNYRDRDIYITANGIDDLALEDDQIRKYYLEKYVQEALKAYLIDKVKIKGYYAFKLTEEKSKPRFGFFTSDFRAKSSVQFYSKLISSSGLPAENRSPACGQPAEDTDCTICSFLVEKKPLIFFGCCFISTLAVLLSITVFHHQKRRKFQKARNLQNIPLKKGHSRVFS
Experiment: DNA synthesis (thymidine incorporation) in BaF3 cells expressing only betaKlotho
Format: cell-based
Details: presence or absence of heparin
Experimental: A commonly used measurement method is a cell growth stimulating activity measurement method described in Ornitz, D. M., Xu, J., Colvin, J. S., McEwen, D. G., MacArthur, C. A., Coulier, F., Gao, G. and Goldfarb, M. (1996) Receptor specificity of the fibroblast growth factor family. J Biol Chem, 271, 15292-15297. The summary thereof is as follows. FGF used as a measurement target is added to a culture solution containing a cultured cell having an FGF receptor on the surface thereof, and the obtained mixture is cultured for a certain period of time. Thereafter, a labeled thymidine is added to the culture solution, followed by further culture for a certain period of time. By measuring the amount of the labeled thymidine incorporated into polymeric DNA during the culture, the degree of FGF to activate DNA synthesis is evaluated. (In the present invention as well, this method was adopted when the activity of FGF21 was measured in Examples 4, 5, 6, 8, 9, and 10.) […]
Immediately after inoculation, BaF3 cells that had expressed each clone and only FGFR1c were stimulated by addition of FGF21 (open bar) or PBS (filled bar) used as a control in the presence of heparin, and they were then cultured for 42 hours. […] Thereafter, the amount of thymidine incorporated into the cells was measured, so as to evaluate DNA synthesis. […]

B1: FGF21: fibroblast growth factor 21; mouse-derived protein used in Examples 1-7 and 10-13 (protein)
chain: AYPIPDSSPLLQFGGQVRQRYLYTDDDQDTEAHLEIREDGTVVGAAHRSPESLLELKALKPGVIQILGVKASRFLCQQPDGALYGSPHFDPEACSFRELLLEDGYNVYQSEAHGLPLRLPQKDSPNQDATSWGPVRFLPMPGLLHEPQDQAGFLPPEPPDVGSSDPLSMVEPLQGRSPSYAS
- DNA synthesis (thymidine incorporated into the cells): did not react with FGF21
